What all share (experiment): ELISA; plate coated with 2 ug/ml C3, C3b or recombinant C345C domain overnight at 4 °C; MI3 dilution series in PBST, 37 °C, 1 h; detected with HRP anti-His antibody (HRP anti-VHH antibody for the C345C domain)
Common to all, as to settings: both partners purified

The target of assay [1] is T1, complement C3b (Homo sapiens (plasma-derived), UniProt P01024).
T1 construct: Bought protein; source: bought: Complement Technology (cat#A114)

Assay [2] concerns the target T2, complement C3 (Homo sapiens (plasma-derived), UniProt P01024).
T2 construct: Bought protein; it works with normal human serum and anti-human detection antibodies; source: bought: Complement Technology (cat#A113)

Assay [3] concerns the target T3, recombinant C345C domain of C3 and C3b (Homo sapiens).
T3 construct: C345C domain of complement C3; also called C345C domain (recombinant expression); source: HEK293-F, transfected (pCDNA3.1(+)), secreted, purified (Ni-NTA agarose, anion exchange GigaCap Q-650M)
T3 chain: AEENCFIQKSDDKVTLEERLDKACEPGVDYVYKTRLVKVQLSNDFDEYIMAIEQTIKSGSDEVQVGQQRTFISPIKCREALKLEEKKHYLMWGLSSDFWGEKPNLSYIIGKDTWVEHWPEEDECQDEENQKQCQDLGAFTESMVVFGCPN

T1 sequence (P01024 23-667): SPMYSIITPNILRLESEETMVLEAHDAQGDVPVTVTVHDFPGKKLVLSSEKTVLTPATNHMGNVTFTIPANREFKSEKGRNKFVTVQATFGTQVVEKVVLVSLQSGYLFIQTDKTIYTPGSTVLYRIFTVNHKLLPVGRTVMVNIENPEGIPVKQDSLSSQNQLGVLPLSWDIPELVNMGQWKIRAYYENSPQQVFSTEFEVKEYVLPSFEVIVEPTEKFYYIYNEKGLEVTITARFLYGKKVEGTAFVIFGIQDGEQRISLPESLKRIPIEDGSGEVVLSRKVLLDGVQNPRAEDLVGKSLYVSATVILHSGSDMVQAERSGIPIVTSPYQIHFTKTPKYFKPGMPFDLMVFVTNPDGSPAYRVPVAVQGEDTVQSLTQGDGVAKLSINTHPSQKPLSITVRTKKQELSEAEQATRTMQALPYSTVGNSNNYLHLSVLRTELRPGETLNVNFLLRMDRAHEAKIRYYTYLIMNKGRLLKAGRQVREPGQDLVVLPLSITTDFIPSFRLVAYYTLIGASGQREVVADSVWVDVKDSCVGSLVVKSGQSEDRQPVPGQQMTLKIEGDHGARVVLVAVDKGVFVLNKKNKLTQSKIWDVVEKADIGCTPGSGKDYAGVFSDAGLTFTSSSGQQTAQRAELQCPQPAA
T2 sequence (P01024 23-667): as above

B1: MI3 (nanobody) (VHH)
VHH: DVQLQESGGGLVQPGGSLRLSCVASGSTFSTYHMGWYRQAPGKQRELIAGITSGGRISYVDSVKGRFNISRDNAKNTVYLQMNTLKPEDTAVYYCNMLGEFAGRPPWGQGTQVTVSS
notes: proprietary nanobody; Provided by Quaerite Biopharm Research; source: HEK293-F, transfected (pCDNA3.1(+)), secreted, purified (Ni-NTA agarose, ion exchange GigaCap Q-650S); not shown: 6xHis (after a GGGGS linker), C-terminal, kept
On to B1, for which the EC50 in assay [1] is 140 pM; in assay [2] it was 170 pM; in assay [3] it was 190 pM.

The record behind these values is article PMC11910092, “Modulating the complement system through epitope-specific inhibition by complement C3 inhibitors” (The Journal of Biological Chemistry, 2025).
